Assay results as given in article PMC3088709, “Phosphorylation of the Yeast γ-Tubulin Tub4 Regulates Microtubule Function” (PLoS ONE, 2011).

B1: Tub4 (yeast gamma-tubulin), wild type, untagged [S. cerevisiae] / Spc97-3HA [S. cerevisiae] (parent complex)
chain 1: MGGEIITLQAGQCGNHVGKFLWSQLAKEHAIGTDGLSQLPDSSTERDDDTKPFFRENSRNKFTPRAIMMDSEPSVIADVENTFRGFFDPRNTWVASDGASAGNSWANGYDIGTRNQDDILNKIDKEIDSTDNFEGFQLLHSVAGGTGSGLGSNLLEALCDRYPKKILTTYSVFPARSSEVVVQSYNTILALRRLIEDSDATVVFDNASLLNISGKVFRNPNIDLQHTNQLISTIISSVTNSIRFPSYMYSSMSSIYSTLIPSPELHFLSPSFTPFTSDYIHDDIAHKGHSSYDVMLDLLDPSNSLVSTAMNNPTYFNVYNTIIGNVEPRQISRAMTKLQQRIKFPSWSSSAMHVNIGRRSPYLPLQPNENEVSGMMLSNMSTVVNVFENACNTFDKVFAKGAFLNNYNVGDLFQSMQNVQDEFAESREVVQSLMEDYVAAEQDSYLDDVLVDDENMVGELEEDLDADGDHKLV
chain 2: MEIKEVDDRAELLRYTNNIPLLGKLVNHQPLWSTNPKLKSFSLEKISAPDQRRVQEALVVKDLLNVLIGLEGTYIRYFNDYEPSDPETPIEFKIAKKMDPSFKTFSRRIVRYGKQYMILTRAYEKWSDTSFGMVLQRFAYEIRRFLEDVYLKTLVERLERDFNKVPNFSIRELEQIINETEVNKQMELLYNIYEEIFREIEERRTNQSSQEDFNNFMDSMKNESSLHLRLMVAFDTTVYPVPKGGAILKIFQQKILENLGDRSSVMFLKKLLNNISQDYCTMLYEWLTQGILNDPYQEFMTYDDLEGKTDNIFDTRDRAWDTQYFIRKDVLLRDCDSEEDKNLLFKMLRTGILLKVVRASLQIPTIPSNSSDITIQEINDFADLMEGSNLELYVDKCYSRANEIFLKLFFQGYDLINVLKHLQQIFLGYQSGHNVLKFLTKNMGELTKHYRNDNNANYDKLLQNFELERQSENPNNLMRQLLMIQFDTETLPQVLSHYLQIYPEVPENNSANDDSDPLMHANNFKNMNAILFDELSKERTGAYHGSNLELYTPKSAIYHLKFDINIPYPLNIIISRTCMIKYQIILRYQLVLQYHSRLLDETWMDLNKTPSWKYRGYSHTVKRRIVRATRVLHAKMNHFIKTIMEYFNQNVIDKEVYSLEKCYRNPTLAVAIQNELEGGLTNIMTNRCLSDLIPLQLQIFDIVYKFCKFIKSMRAKLCQLDPVLYEKHKSGMMKTLNEGYRTNNGGQEDVGYQEDAALELIQKLIEYISNASSIFRKCLINFTQELSTEKFDFYDSSSVDAAGIERVLYSIVPPRSASASSQR

Variants of: B1
Experiment: co-immunoprecipitation (anti-HA IP of Spc97-3HA), quantified immunoblot; TUB4-AID SPC97-3HA cells, IAA for 2 h at 30°C; normalized to precipitated Spc97-3HA; parent: 1; read off a plot

| Variant | ratio to parent |
| --- | --- |
| chain 1 S360D | ~0.41 |
| chain 1 S100E | ~0.63 |
